Data published in PMC5526978.

Molecular target: GCSF-Fc (human granulocyte colony-stimulating factor fused with the IgG1 Fc domain at the C-terminus) (UniProt P09919)
Assay: non-reducing SDS-PAGE; purified GCSF-Fc run under reducing and non-reducing conditions, 10% SDS-PAGE

“GCSF-Fc (human granulocyte colony-stimulating factor fused with the IgG1 Fc domain at the C-terminus) (from UniProt P09919-2 31-204) (Fc fusion)” gave a stoichiometry N of 2.
